Measured values: patent US20140363428A1 (Chugai, published 2014)

B1: IgG1-F1262 (antibody)
heavy: QVQLQESGPGLVKPSETLSLTCAVSGHSISHDHAWSWVRQPPGEGLEWIGFISYSGITNYNPSLQGRVTISRDNSKNTLYLQMNSLRAEDTAVYYCARSLARTTAMDYWGEGTLVTVSSASTKGPSVFPLAPSSKSTSGGTAALGCLVKDYFPEPVTVSWNSGALTSGVHTFPAVLQSSGLYSLSSVVTVPSSSLGTQTYICNVNHKPSNTKVDKKVEPKSCDKTHTCPPCPAPELRGGPKVFLFPPKPKDTLYISRTPEVTCVVVDVSHEDPEVKFNWYVDGVEVHNAKTKPREEQYNSTYRVVSVLTVLHQDWLNGKEYKCKVSNKALPAPIEKTISKAKGQPREPQVYTLPPSRDELTKNQVSLTCLVKGFYPSDIAVEWESNGQPENNYKTTPPVLDSDGSFFLYSKLTVDKSRWQQGNVFSCSVMHEALHYHVTKKELSLSP
light: not shown
notes: EU numbering; copies: 2 + 2
B2: IgG1-F1160 (antibody)
heavy: QVQLQESGPGLVKPSETLSLTCAVSGHSISHDHAWSWVRQPPGEGLEWIGFISYSGITNYNPSLQGRVTISRDNSKNTLYLQMNSLRAEDTAVYYCARSLARTTAMDYWGEGTLVTVSSASTKGPSVFPLAPSSKSTSGGTAALGCLVKDYFPEPVTVSWNSGALTSGVHTFPAVLQSSGLYSLSSVVTVPSSSLGTQTYICNVNHKPSNTKVDKKVEPKSCDKTHTCPPCPAPELLGGPSVFLFPPKPKDTLMISRTPEVTCVVVDVSHEDPEVKFNWYVDGVEVHNAKTKPREEQYNSTYRVVSVLTFLHQDWLNGKEYKCKVSNKALPAPIEKTISKAKGQPREPQVYTLPPSRDELTKNQVSLTCLVKGFYPSDIAVEWESNGQPENNYKTTPPVLDSDGSFFLYSKLTVDKSRWQQGNVFNCSVMHEALHYHYTQKSLSLSP
light: not shown
notes: EU numbering; copies: 2 + 2
B3: IgG1-F1164 (antibody)
heavy: QVQLQESGPGLVKPSETLSLTCAVSGHSISHDHAWSWVRQPPGEGLEWIGFISYSGITNYNPSLQGRVTISRDNSKNTLYLQMNSLRAEDTAVYYCARSLARTTAMDYWGEGTLVTVSSASTKGPSVFPLAPSSKSTSGGTAALGCLVKDYFPEPVTVSWNSGALTSGVHTFPAVLQSSGLYSLSSVVTVPSSSLGTQTYICNVNHKPSNTKVDKKVEPKSCDKTHTCPPCPAPELLGGDSVFLFPPKPKDYLYISRTPEVTCVVVDVSHEDPEVKFNWYVDGVEVHNAKTKPREEQYNSTYRVVSVLQVLHADWLNGKEYKCKVSNKALPAPIEKTISKAKGQPREPQVYTLPPSRDELTKNQVSLTCLVKGFYPSDIAVEWESNGQPENNYKTTPPVLDSDGSFFLYSKLTVDKSRWQQGNVFSCSVMHEALHYHVTQKSLSLSP
light: not shown
notes: EU numbering; copies: 2 + 2
B4: IgG1-F1189 (antibody)
heavy: QVQLQESGPGLVKPSETLSLTCAVSGHSISHDHAWSWVRQPPGEGLEWIGFISYSGITNYNPSLQGRVTISRDNSKNTLYLQMNSLRAEDTAVYYCARSLARTTAMDYWGEGTLVTVSSASTKGPSVFPLAPSSKSTSGGTAALGCLVKDYFPEPVTVSWNSGALTSGVHTFPAVLQSSGLYSLSSVVTVPSSSLGTQTYICNVNHKPSNTKVDKKVEPKSCDKTHTCPPCPAPELLGGPSVFLFPPKPKDTLYISRTPEVTCVVVDVSHEDPEVKFNWYVDGVEVHNAKTKPREEQYNSTYRVVSVLTVLHQDWLNGKEYKCKVSNKALPAPIEKTISKAKGQPREPQVYTLPPSRDELTKNQVSLTCLVKGFYPSDIAVEWESNGQPENNYKTTPPVLDSDGSFFLYSKLTVDKSRWQQGNVFSCSVMHEALDYHVTRKELSLSP
light: not shown
notes: EU numbering; copies: 2 + 2
B5: IgG1-F1162 (antibody)
heavy: QVQLQESGPGLVKPSETLSLTCAVSGHSISHDHAWSWVRQPPGEGLEWIGFISYSGITNYNPSLQGRVTISRDNSKNTLYLQMNSLRAEDTAVYYCARSLARTTAMDYWGEGTLVTVSSASTKGPSVFPLAPSSKSTSGGTAALGCLVKDYFPEPVTVSWNSGALTSGVHTFPAVLQSSGLYSLSSVVTVPSSSLGTQTYICNVNHKPSNTKVDKKVEPKSCDKTHTCPPCPAPELLGGDSVFLFPPKPKDYLYISRTPEVTCVVVDVSHEDPEVKFNWYVDGVEVHNAKTKPREEQYNSTYRVVSVLTVLHQDWLNGKEYKCKVSNKALPAPIEKTISKAKGQPREPQVYTLPPSRDELTKNQVSLTCLVKGFYPSDIAVEWESNGQPENNYKTTPPVLDSDGSFFLYSKLTVDKSRWQQGNVFSCSVMHEALHYHVTQKSLSLSP
light: not shown
notes: EU numbering; copies: 2 + 2
B6: IgG1-F1163 (antibody)
heavy: QVQLQESGPGLVKPSETLSLTCAVSGHSISHDHAWSWVRQPPGEGLEWIGFISYSGITNYNPSLQGRVTISRDNSKNTLYLQMNSLRAEDTAVYYCARSLARTTAMDYWGEGTLVTVSSASTKGPSVFPLAPSSKSTSGGTAALGCLVKDYFPEPVTVSWNSGALTSGVHTFPAVLQSSGLYSLSSVVTVPSSSLGTQTYICNVNHKPSNTKVDKKVEPKSCDKTHTCPPCPAPELLGGDSVFLFPPKPKDYLYISRTPEVTCVVVDVSHEDPEVKFNWYVDGVEVHNAKTKPREEQYNSTYRVVSVLQVLHADWLNGKEYKCKVSNKALPAPIEKTISKAKGQPREPQVYTLPPSRDELTKNQVSLTCLVKGFYPSDIAVEWESNGQPENNYKTTPPVLDSDGSFFLYSKLTVDKSRWQQGNVFSCSVMHEALHYHYTQKSLSLSP
light: not shown
notes: EU numbering; copies: 2 + 2
B7: IgG1-F1188 (antibody)
heavy: QVQLQESGPGLVKPSETLSLTCAVSGHSISHDHAWSWVRQPPGEGLEWIGFISYSGITNYNPSLQGRVTISRDNSKNTLYLQMNSLRAEDTAVYYCARSLARTTAMDYWGEGTLVTVSSASTKGPSVFPLAPSSKSTSGGTAALGCLVKDYFPEPVTVSWNSGALTSGVHTFPAVLQSSGLYSLSSVVTVPSSSLGTQTYICNVNHKPSNTKVDKKVEPKSCDKTHTCPPCPAPELLGGPSVFLFPPKPKDTLMISRTPEVTCVVVDVSHEDPEVKFNWYVDGVEVHNAKTKPREEQYNSTYRVVSVLAVLHQDWLNGKEYKCKVSNKALPAPIEKTISKAKGQPREPQVYTLPPSRDELTKNQVSLTCLVKGFYPSDIAVAWESNGQPENNYKTTPPVLDSDGSFFLYSKLTVDKSRWQQGNVFSCSVMHEALHHHYTQKSLSLSP
light: not shown
notes: EU numbering; copies: 2 + 2
B8: IgG1-F1165 (antibody)
heavy: QVQLQESGPGLVKPSETLSLTCAVSGHSISHDHAWSWVRQPPGEGLEWIGFISYSGITNYNPSLQGRVTISRDNSKNTLYLQMNSLRAEDTAVYYCARSLARTTAMDYWGEGTLVTVSSASTKGPSVFPLAPSSKSTSGGTAALGCLVKDYFPEPVTVSWNSGALTSGVHTFPAVLQSSGLYSLSSVVTVPSSSLGTQTYICNVNHKPSNTKVDKKVEPKSCDKTHTCPPCPAPELLGGDSVFLFPPKPKDYLYISRTPEVTCVVVDVSHEDPEVKFNWYVDGVEVHNAKTKPREEQYNSTYRVVSVLQPLHADWLNGKEYKCKVSNKALPAPIEKTISKAKGQPREPQVYTLPPSRDELTKNQVSLTCLVKGFYPSDIAVEWESNGQPENNYKTTPPVLDSDGSFFLYSKLTVDKSRWQQGNVFSCSVMHEALHYHVTQKSLSLSP
light: not shown
notes: EU numbering; copies: 2 + 2
B9: IgG1-F1183 (antibody)
heavy: QVQLQESGPGLVKPSETLSLTCAVSGHSISHDHAWSWVRQPPGEGLEWIGFISYSGITNYNPSLQGRVTISRDNSKNTLYLQMNSLRAEDTAVYYCARSLARTTAMDYWGEGTLVTVSSASTKGPSVFPLAPSSKSTSGGTAALGCLVKDYFPEPVTVSWNSGALTSGVHTFPAVLQSSGLYSLSSVVTVPSSSLGTQTYICNVNHKPSNTKVDKKVEPKSCDKTHTCPPCPAPELLGGPSVFLFPPKPKDTLMISRTPEVTCVVVDVSHEDPEVKFNWYVDGVEVHNAKTKPREEQYNSTYRVVSVLTVLHQDWLNGKEYKCKVSNKALPAPIEKTISKAKGQPREPQVYTLPPSRDELTKNQVSLTCLVKGFYPSDIAVAWESNGQPENNYKTTPPVLDSDGSFFLYSKLTVDKSRWQQGNVFSCSVLHEALHSHYTQKSLSLSP
light: not shown
notes: EU numbering; copies: 2 + 2
B10: IgG1-F1185 (antibody)
heavy: QVQLQESGPGLVKPSETLSLTCAVSGHSISHDHAWSWVRQPPGEGLEWIGFISYSGITNYNPSLQGRVTISRDNSKNTLYLQMNSLRAEDTAVYYCARSLARTTAMDYWGEGTLVTVSSASTKGPSVFPLAPSSKSTSGGTAALGCLVKDYFPEPVTVSWNSGALTSGVHTFPAVLQSSGLYSLSSVVTVPSSSLGTQTYICNVNHKPSNTKVDKKVEPKSCDKTHTCPPCPAPELLGGPSVFLFPPKPKDTLMISRTPEVTCVVVDVSHEDPEVKFNWYVDGVEVHNAKTKPREEQYNSTYRVVSVLAVLHQDWLNGKEYKCKVSNKALPAPIEKTISKAKGQPREPQVYTLPPSRDELTKNQVSLTCLVKGFYPSDIAVAWESNGQPENNYKTTPPVLDSDGSFFLYSKLTVDKSRWQQGNVFSCSVLHEALHSHYTQKSLSLSP
light: not shown
notes: EU numbering; copies: 2 + 2
B11: IgG1-F1161 (antibody)
heavy: QVQLQESGPGLVKPSETLSLTCAVSGHSISHDHAWSWVRQPPGEGLEWIGFISYSGITNYNPSLQGRVTISRDNSKNTLYLQMNSLRAEDTAVYYCARSLARTTAMDYWGEGTLVTVSSASTKGPSVFPLAPSSKSTSGGTAALGCLVKDYFPEPVTVSWNSGALTSGVHTFPAVLQSSGLYSLSSVVTVPSSSLGTQTYICNVNHKPSNTKVDKKVEPKSCDKTHTCPPCPAPELLGGPSVFLFPPKPKDTLMISRTPEVTCVVVDVSHEDPEVKFNWYVDGVEVHNAKTKPREEQYNSTYRVVSVLTVLHQDWLNGKEYKCKVSNKALPAPVEKTISKAKGQPREPQVYTLPPSRDELTKNQVSLTCLVKGFYPSDIAVEWESNGQPENNYKTTPPVLDSDGSFFLYSKLTVDKSRWQQGNVFNCSVMHEALHYHYTQKSLSLSP
light: not shown
notes: EU numbering; copies: 2 + 2
B12: IgG1-F1178 (antibody)
heavy: QVQLQESGPGLVKPSETLSLTCAVSGHSISHDHAWSWVRQPPGEGLEWIGFISYSGITNYNPSLQGRVTISRDNSKNTLYLQMNSLRAEDTAVYYCARSLARTTAMDYWGEGTLVTVSSASTKGPSVFPLAPSSKSTSGGTAALGCLVKDYFPEPVTVSWNSGALTSGVHTFPAVLQSSGLYSLSSVVTVPSSSLGTQTYICNVNHKPSNTKVDKKVEPKSCDKTHTCPPCPAPELLGGPSVFLFPPKPKDTLMISRTPEITCVVVDVSHEDPEVKFNWYVDGVEVHNAKTKPREEQYNSTYRVVSVLTFLHQDWLNGKEYKCKVSNKALPAPIEKTISKAKGQPREPQVYTLPPSRDELTKNQVSLTCLVKGFYPSDIAVEWESNGQPENNYKTTPPVLDSDGSFFLYSKLTVDKSRWQQGNVFSCSVLHEALHNHYTQKSLSLSP
light: not shown
notes: EU numbering; copies: 2 + 2

Biological target: T1, soluble human FcRn (human, UniProt P55899 24-297; P61769 21-119)
T1 construct: Heterodimer of FcRn alpha chain and beta2-microglobulin; also called hFcRn
Experiment: SPR (Biacore T100), antibody captured by protein L, hFcRn as analyte, pH 7.0, 25 C;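 further: KD calculated from fitted association and dissociation rate constants of the sensorgrams, protein L amine-coupled to the sensor chip, sodium phosphate running buffer with NaCl and Tween20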

T1 sequence (P55899 24-297 limits assumed, chain 1 of 2): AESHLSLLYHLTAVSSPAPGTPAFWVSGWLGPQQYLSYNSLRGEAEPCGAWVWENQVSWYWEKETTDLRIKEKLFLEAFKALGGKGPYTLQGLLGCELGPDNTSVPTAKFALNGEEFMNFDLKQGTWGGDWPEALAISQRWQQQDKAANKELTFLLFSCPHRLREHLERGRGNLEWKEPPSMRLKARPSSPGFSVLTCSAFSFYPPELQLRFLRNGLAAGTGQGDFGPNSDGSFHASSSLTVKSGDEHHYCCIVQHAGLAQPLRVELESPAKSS
T1 sequence (P61769 21-119 limits assumed, chain 2 of 2): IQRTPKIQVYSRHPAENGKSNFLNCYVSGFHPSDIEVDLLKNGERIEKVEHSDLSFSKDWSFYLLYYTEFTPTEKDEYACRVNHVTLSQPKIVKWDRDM

With B1 as the binder, how does the Kd read?
Its Kd is 130 nM.

With B2 as the binder, how does the Kd read?
The Kd was 290 nM.

For B3, which Kd is on record?
Its Kd is 70 nM.

How did the Kd turn out when B4 was run?
Its Kd is 160 nM.

For B5, which Kd is on record?
Its Kd is 340 nM.

With B6 as the binder, how does the Kd read?
Its Kd is 150 nM.

Which Kd does the source give for B7 here?
The Kd was 1700 nM.

For B8, which Kd is on record?
Its Kd is 16 nM.

How did the Kd turn out when B9 was run?
The Kd was 1300 nM.

How did the Kd turn out when B10 was run?
Its Kd is 920 nM.

With B11 as the binder, how does the Kd read?
The Kd was 1100 nM.

Which Kd does the source give for B12 here?
The Kd was 870 nM.
